Experiment [1] deals with FcγRIIIA-streptavidin fusion protein (human; Streptomyces avidinii) (UniProt P08637). In words: ELISA: antibody captured on protein A/G, FcγRIIIA-streptavidin (1:1000), biotin-HRP; the text speaks of IC50 values. On the technique in general: In an ELISA, binding on a coated surface is turned into a signal by an enzyme label.
Experiment [2] addresses FcγRI and FcγRII on THP-1 cells. In words: flow cytometry, antibody on THP-1 cells, FITC anti-human IgG Fab. In general terms: Flow cytometry measures light scatter and fluorescence of single cells or particles in a stream.
The target in experiment [3] is human C1q (Quidel) (human) (UniProt P02745). In words: ELISA: antibody captured on protein A/G, human C1q 2 ug/ml, anti-C1q detection.
Chain of human C1q (Quidel) (human) (P02745 23-245, chain 1 of 3): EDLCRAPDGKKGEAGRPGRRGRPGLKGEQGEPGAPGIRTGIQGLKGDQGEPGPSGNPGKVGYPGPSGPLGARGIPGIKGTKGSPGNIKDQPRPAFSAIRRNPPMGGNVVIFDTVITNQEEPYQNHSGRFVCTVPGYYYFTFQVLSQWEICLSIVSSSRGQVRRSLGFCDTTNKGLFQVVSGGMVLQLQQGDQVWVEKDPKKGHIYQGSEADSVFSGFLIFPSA
Chain of human C1q (Quidel) (human) (P02746 28-253, chain 2 of 3, further chain): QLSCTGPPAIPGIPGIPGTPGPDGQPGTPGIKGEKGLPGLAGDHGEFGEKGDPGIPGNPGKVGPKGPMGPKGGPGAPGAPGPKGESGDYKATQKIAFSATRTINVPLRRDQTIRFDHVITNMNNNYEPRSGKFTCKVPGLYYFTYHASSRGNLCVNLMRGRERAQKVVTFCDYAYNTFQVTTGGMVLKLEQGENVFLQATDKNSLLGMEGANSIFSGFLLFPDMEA
Chain of human C1q (Quidel) (human) (P02747 29-245, chain 3 of 3, further chain): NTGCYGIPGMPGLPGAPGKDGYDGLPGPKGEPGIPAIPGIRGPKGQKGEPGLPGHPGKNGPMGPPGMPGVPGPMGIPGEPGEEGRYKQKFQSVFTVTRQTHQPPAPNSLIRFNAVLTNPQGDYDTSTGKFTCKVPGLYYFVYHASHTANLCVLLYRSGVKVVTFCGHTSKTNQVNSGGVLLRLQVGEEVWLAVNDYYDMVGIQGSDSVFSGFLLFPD

These results are taken from patent US20070111260A1.

Chain of FcγRIIIA-streptavidin fusion protein (human; Streptomyces avidinii) (P08637 17-208 limits assumed): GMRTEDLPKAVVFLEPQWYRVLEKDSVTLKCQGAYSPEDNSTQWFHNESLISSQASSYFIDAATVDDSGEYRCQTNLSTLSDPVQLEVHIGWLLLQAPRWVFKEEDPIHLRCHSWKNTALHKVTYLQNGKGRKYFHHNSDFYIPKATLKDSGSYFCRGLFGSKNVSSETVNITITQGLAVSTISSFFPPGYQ

Turning to “12G3H11 anti-EphA2 antibody Fc variant InE240/241 (soluble) (from UniProt P01857 1-330)”, the FcγRIIIA Binding in experiment [1] is 4.93 µg/mL.

Consider “12G3H11 anti-EphA2 antibody Fc variant K246R/L251E/T260R (soluble)”, for which, in experiment [2], the FcγRI&II Binding (fold less, against wild type) turned out to be 9 fold. In experiment [3], this substance displayed a C1q binding (fold less, against wild type) of 2 fold.

Consider “12G3H11 anti-EphA2 antibody Fc variant W277T (soluble)”, for which, in experiment [1], the FcγRIIIA Binding was 0.5 µg/mL.
